Reference: paper PMC9064986, “Crystal structures of BMPRII extracellular domain in binary and ternary receptor complexes with BMP10” (Nature Communications, 2022)
Blank lines part the entries; values can stand above or below the binder they belong to.

B1: Recombinant human BMP10 growth factor (GF)-domain (R&D Systems) (ligand, UniProt O95393 317-424, looked up)
chain: NAKGNYCKRTPLYIDFKEIGWDSWIIAPPGYEAYECRGVCNYPLAEHLTPTKHAIIQALVHLKNSQKASKACCVPTKLEPISILYLDKGVVTYKFKYEGMAVSECGCR
notes: growth factor (GF) domain of human BMP10, the cut product of the BMP10 precursor; also called BMP10 GF-domain; source: bought: R&D Systems (cat. No. 2926-BP-025/CF)

Legend:
BMPRII-Fc (R&D Systems) = target: T1, BMPRII-Fc (R&D Systems) (UniProt Q13873 27-150); experiment: SPR; BMP10 flowed over a BMPRII-Fc surface, with ALK1 present (Supplementary Fig 5c); conditions: both partners purified
T1 construct: BMPRII part of the bought Fc fusion; source: bought: R&D Systems (cat. No. 811-BR)
T1 sequence (looked up): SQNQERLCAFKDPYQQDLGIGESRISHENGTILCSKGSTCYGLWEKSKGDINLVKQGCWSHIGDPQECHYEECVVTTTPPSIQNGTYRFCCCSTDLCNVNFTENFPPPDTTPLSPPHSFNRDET

BMPRII ECD N126S [1] = target: T2, BMPRII ECD N126S (human, UniProt Q13873-1 27-150, N126S); experiment: SPR; Biacore T200; BMP10 GF-domain amine-coupled to a CM5 chip (1300 RU); ALK1-Fc, BMPRII-Fc or monomeric BMPRII WT and mutant ECDs injected at 40 ul/min; 10 mM HEPES pH 7.4, 150 mM NaCl, 3.4 mM EDTA, 0.5 mg/ml BSA, 0.005% P20, 25 °C; 1:1 model, KD = kd/ka; conditions: both partners purified
T2 construct: BMPRII (BMPR2) extracellular domain, human, amino acids 27-150 of the cDNA NM_001204; mutation found in PAH patients; source: E. coli Rosetta DE3, periplasm, purified (HisTrap, TEV cleavage, Superdex 75); not shown: DsbA, N-terminal, cleaved; His6, N-terminal, cleaved
T2 sequence (looked up): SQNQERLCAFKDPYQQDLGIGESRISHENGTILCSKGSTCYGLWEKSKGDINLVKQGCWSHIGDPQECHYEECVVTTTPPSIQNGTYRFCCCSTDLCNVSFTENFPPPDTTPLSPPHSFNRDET

BMPRII ECD Q92H = target: T3, BMPRII ECD Q92H (human, UniProt Q13873-1 27-150, Q92H); experiment: as above; conditions: both partners purified
T3 construct: BMPRII (BMPR2) extracellular domain, human, amino acids 27-150 of the cDNA NM_001204; mutation found in PAH patients; source: E. coli Rosetta DE3, periplasm, purified (HisTrap, TEV cleavage, Superdex 75); not shown: DsbA, N-terminal, cleaved; His6, N-terminal, cleaved
T3 sequence (looked up): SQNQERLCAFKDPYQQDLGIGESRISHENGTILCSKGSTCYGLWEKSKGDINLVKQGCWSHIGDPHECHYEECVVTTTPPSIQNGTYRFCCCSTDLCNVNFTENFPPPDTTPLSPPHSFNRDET

BMPRII ECD E98K [2] = target: T4, BMPRII ECD E98K (human, UniProt Q13873-1 27-150, E98K); experiment: as above; conditions: both partners purified
T4 construct: BMPRII (BMPR2) extracellular domain, human, amino acids 27-150 of the cDNA NM_001204; mutation found in PAH patients; source: E. coli Rosetta DE3, periplasm, purified (HisTrap, TEV cleavage, Superdex 75); not shown: DsbA, N-terminal, cleaved; His6, N-terminal, cleaved
T4 sequence (looked up): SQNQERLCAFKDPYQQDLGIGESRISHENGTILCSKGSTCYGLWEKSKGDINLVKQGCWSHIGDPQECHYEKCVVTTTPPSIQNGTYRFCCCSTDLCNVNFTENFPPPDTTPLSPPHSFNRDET

[3] = target: the molecule itself; experiment: crystal structure; BMP10:BMPRII ECD binary complex, two crystal forms (P212121, 1.48 Å; C2, 2.40 Å); complex refolded from denatured BMP10 GF-domain with excess BMPRII ECD
BMPRII ECD N126S [4] = target: T2, BMPRII ECD N126S; experiment: native gel or EMSA; prodomain displacement: Pro:BMP10 premixed with BMPRII WT or mutant ECDs at 1:2 and 1:5 molar ratio, 20 mM Tris, 150 mM NaCl, pH 7.4, 30 min at room temperature, 12% native PAGE, Coomassie, densitometry of Pro:BMP10/prodomain; conditions: both partners purified
BMPRII ECD E98K [5] = target: T4, BMPRII ECD E98K; experiment: as above; conditions: both partners purified
[6] = target: B1; experiment: SPR; Biacore T200; BMP10 GF-domain amine-coupled to a CM5 chip (1300 RU); ALK1-Fc, BMPRII-Fc or monomeric BMPRII WT and mutant ECDs injected at 40 ul/min; 10 mM HEPES pH 7.4, 150 mM NaCl, 3.4 mM EDTA, 0.5 mg/ml BSA, 0.005% P20, 25 °C; 1:1 model, KD = kd/ka; conditions: both partners purified

Binder: B1
fold weaker affinity with ALK1 present than without ALK1 (BMPRII-Fc (R&D Systems)): ~5 fold | binding result (BMPRII ECD N126S [1]): binds | binding result (BMPRII ECD Q92H): binds | binding result (BMPRII ECD E98K [2]): binds

B3: BMPRII ECD G89A (domain or fragment, human, UniProt Q13873-1 27-150, looked up)
chain: SQNQERLCAFKDPYQQDLGIGESRISHENGTILCSKGSTCYGLWEKSKGDINLVKQGCWSHIADPQECHYEECVVTTTPPSIQNGTYRFCCCSTDLCNVNFTENFPPPDTTPLSPPHSFNRDET
notes: BMPRII (BMPR2) extracellular domain, human, amino acids 27-150 of the cDNA NM_001204; source: E. coli Rosetta DE3, periplasm, purified (HisTrap, TEV cleavage, Superdex 75); not shown: DsbA, N-terminal, cleaved; His6, N-terminal, cleaved
fold reduction in affinity against WT BMPRII ECD [6]: < 2 fold

The next lines start with results.

binding result (BMPRII ECD N126S [4]): binds | binding result (BMPRII ECD E98K [5]): binds
B2: BMP10 growth factor (GF)-domain from Pro:BMP10 made in HEK EBNA cells (ligand, human, UniProt O95393 317-424, looked up)
chain: NAKGNYCKRTPLYIDFKEIGWDSWIIAPPGYEAYECRGVCNYPLAEHLTPTKHAIIQALVHLKNSQKASKACCVPTKLEPISILYLDKGVVTYKFKYEGMAVSECGCR
notes: growth factor (GF) domain of human BMP10, cut by furin from the product of the full-length open reading frame (NM_014482); also called BMP10 GF-domain; source: HEK EBNA, full-length BMP10 cDNA co-transfected with FURIN, purified from conditioned medium as Pro:BMP10
binding result [3]: binds

fold reduction in affinity against WT BMPRII ECD [6]: > 100 fold
B4: BMPRII ECD G89W (domain or fragment, human, UniProt Q13873-1 27-150, looked up)
chain: SQNQERLCAFKDPYQQDLGIGESRISHENGTILCSKGSTCYGLWEKSKGDINLVKQGCWSHIWDPQECHYEECVVTTTPPSIQNGTYRFCCCSTDLCNVNFTENFPPPDTTPLSPPHSFNRDET
notes: as for B3

fold reduction in affinity against WT BMPRII ECD [6]: > 100 fold
B5: BMPRII ECD G89E (domain or fragment, human, UniProt Q13873-1 27-150, looked up)
chain: SQNQERLCAFKDPYQQDLGIGESRISHENGTILCSKGSTCYGLWEKSKGDINLVKQGCWSHIEDPQECHYEECVVTTTPPSIQNGTYRFCCCSTDLCNVNFTENFPPPDTTPLSPPHSFNRDET
notes: as for B3

fold tighter binding than WT BMPRII ECD [6]: ~4 fold
B6: BMPRII ECD S107P (domain or fragment, human, UniProt Q13873-1 27-150, looked up)
chain: SQNQERLCAFKDPYQQDLGIGESRISHENGTILCSKGSTCYGLWEKSKGDINLVKQGCWSHIGDPQECHYEECVVTTTPPPIQNGTYRFCCCSTDLCNVNFTENFPPPDTTPLSPPHSFNRDET
notes: BMPRII (BMPR2) extracellular domain, human, amino acids 27-150 of the cDNA NM_001204; mutation found in PAH patients; source: E. coli Rosetta DE3, periplasm, purified (HisTrap, TEV cleavage, Superdex 75); not shown: DsbA, N-terminal, cleaved; His6, N-terminal, cleaved
